± gives the standard deviation of the averaged measurements.
Tested on: VchCAST RNA-guided transposition machinery (E. coli BL21(DE3) host, lacZ target)
Assay: relative integration efficiency (T-RL orientation) vs wild-type transposon end (log2 (normalized fold change)); transposon end mutated: right end (5 bp flank + 75 bp right end); higher = more efficient transposition
Method in brief: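 In E. coli BL21(DE3), a T7-driven effector plasmid was paired with a pUC57 mini-transposon donor containing 1549 left-end or 1849 right-end barcoded transposon variants. Cells grew on plates with 0.1 mM IPTG at 37°C for 18 h. Relative integration efficiency was derived from Illumina reads of genomic integration junctions against input plasmids, as a log-transformed output/input barcode fold change normalised to reference barcodes.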

Row | Sequence | relative integration efficiency (log2)
1 | ACATTTGTTGATACAACCAAAAAATGATAATTACACCCAAAAATTGATAATTATCACACCCAAAAATTGATATTGCCTCTGATCATAGTCAGACCAACATTGCTACGACCCGTATTCGCACCGACAC | -0.669 ± 0.11
2 | ACATTTGTTGATACAACCATAAAAGGATAATTACACCCATCAATTGATAATTATCCCACCCAATTTAACTATAACGCTCTGATCATAGTCAGACCAACATTGCTACGACCCGTATTCGCACCGACAC | -1.89 ± 0.25
3 | ACATTTGTTGATACAACCATAAAATGATAATTAATAATTATTTATACACCCATAAATTGATAATTATCACACCCATAAATTGATATTGCCTCTGATCATAGTCAGACCAACATTGCTACGACCCGTA | -3.6 ± 0.11
4 | ACATTTGTTGATACAAAACGCCCCGTCGCCGGCACAAACGCCCGGTCGCCGGCGACACAAACGCCCGGTCGCGGTAAGAGGATCATAGTCAGACCAACATTGCTACGACCCGTATTCGCACCGACAC | -7.52 ± 1
5 | ACATTTGTTGATACAACCATAAATACTTAATTACACCCATAAATTGATAATTATCACACCCATAAATTGATATTGCCTCTGATCATAGTCAGACCAACATTGCTACGACCCGTATTCGCACCGACAC | -2.25 ± 0.17
6 | ACATTTGTTGATACAACCATAAAGTGATATTTACAACCATAAGTTGATATTTTTCAGTGGGTATTTAACTATAACGCTCTGATCATAGTCAGACCAACATTGCTACGACCCGTATTCGCACCGACAC | -0.682 ± 0.18
7 | ACATTTGTTGATACAACCATAAAATGATAATTCCACCCATAAATTGATAATTCTCACACCCATAAATTGATATTGACTCTGATCATAGTCAGACCAACATTGCTACGACCCGTATTCGCACCGACAC | -0.563 ± 0.1
8 | ACATTTGTCGATACAACCATAAAATGATAATTACACCCATAAATTCATAATTATCACCCCCAATTTAACTATAACGCTCTGATCATAGTCAGACCAACATTGCTACGACCCGTATTCGCACCGACAC | -1.83 ± 0.51
9 | ACATTTGTTGATACAACCATAAAATGATAAGGCACAAACGCCCGGTCGCCGGCGACACAAACGCCCGGTCGCGGTAAGAGGATCATAGTCAGACCAACATTGCTACGACCCGTATTCGCACCGACAC | -2.28 ± 0.27
10 | ACATTTGTTGATACAACCATAAAATGATAATTAATAATTACACCCATAAATTGATAATTATCACACCCATAAATTGATATTGCCTCTGATCATAGTCAGACCAACATTGCTACGACCCGTATTCGCA | -3.12 ± 0.2
11 | ACATTTGTTGATATCAACCATAAAATGATAATTACACCCATAAATTGATAATTATCACACCCATAAATTGATATTGCCTCTGATCATAGTCAGACCAACATTGCTACGACCCGTATTCGCACCGACA | -0.0259 ± 0.16
12 | ACATTTGTGGATCCAACCATAAAATGATAATTACACCCATAAATTGATCATTATCACACCCAATTTAACTATAACGCTCTGATCATAGTCAGACCAACATTGCTACGACCCGTATTCGCACCGACAC | -1.6 ± 0.2
13 | ACATTTGTTGATACAACCATCAAATGATAATTCCACCCATAAATTGATAATTATCACACCCAATTTAACTATAACGCTCTGATCATAGTCAGACCAACATTGCTACGACCCGTATTCGCACCGACAC | -1.53 ± 0.19
14 | ACATTTGTTGATACAACCATAAAATGATAATTACCACCCATACATTGATAATTATCACACCCATTTAACTATAACGCTCTGATCATAGTCAGACCAACATTGCTACGACCCGTATTCGCACCGACAC | -2.43 ± 0.1
15 | ACATTTGTTGATACAACCATAAAATGATAATTACACCCATAAATTGATAATTATCACACCCATAAATTGATATTGCCTCTAGCTTGATCTACATTGGATTGCCATTCTCTCACAGTAGCACCGACAC | 0.0681 ± 0.22
16 | ACATTTGTTGATACACCCATAAATTGATAATTACAACCATAAAATGATAATTATCACACCCATAAATTGATAATTACTCTGATCATAGTCAGACCAACATTGCTACGACCCGTATTCGCACCGACAC | -0.421 ± 0.15

Row | Sequence | relative integration efficiency (log2)
17 | ACATTTGTTGATACAACCATTAAATGGTAATTCCACCCAAATATTGATAATTATCACACCCAATTTAACTATAACGCTCTGATCATAGTCAGACCAACATTGCTACGACCCGTATTCGCACCGACAC | -2.19 ± 0.42
18 | ACATTTGTCGATACAACCCTAAAATGATAATTACACCCATAAATTCATCATTATCACACCCAATTTAACTATAACGCTCTGATCATAGTCAGACCAACATTGCTACGACCCGTATTCGCACCGACAC | -4.888 ± 0.035
19 | AGTTTTGTTGATACAACCATAAAATGATAATTACACCCATAAATTGATAATTATCACACCCATAAATTGATATTGCCTCTGATCATAGTCAGACCAACATTGCTACGACCCGTATTCGCACCGACAC | 0.00539 ± 0.033
20 | ACATTTGTTGATACAACCCTAAAATGATAATTACACCCATAAATGGATCATTATCACCCCCAATTTAACTATAACGCTCTGATCATAGTCAGACCAACATTGCTACGACCCGTATTCGCACCGACAC | -4.22 ± 0.58
21 | ACATTTGTTGATCAAACCATAAAATGATAATTACACCCATAAATTGATAATTATCACACCCATAAATTGATATTGCCTCTGATCATAGTCAGACCAACATTGCTACGACCCGTATTCGCACCGACAC | -0.137 ± 0.021
22 | ACATTTGTTGATACAACCATAAAATGATAATTACAACCATATATTGATATCTCTCACACCCATAAATTGATATTGCCTCTGATCATAGTCAGACCAACATTGCTACGACCCGTATTCGCACCGACAC | -0.424 ± 0.15
23 | ACATTTGTTGATACAACCATATATTGATATCTCCAACCATAAAATGATAATTATCACAACCATAAAATGATAATTACTCTGATCATAGTCAGACCAACATTGCTACGACCCGTATTCGCACCGACAC | -0.172 ± 0.01
24 | ACATTTGTGGATACAACCCTAAAATGATAATTACACCCATAAATTGATCATTATCACACCCAATTTAACTATAACGCTCTGATCATAGTCAGACCAACATTGCTACGACCCGTATTCGCACCGACAC | -3.19 ± 0.51
25 | ACATTTGTTGATACAACCATAAAATGATAATTAATAATTATTTATAATCAGCACCCATAAATTGATAATTATCAACAAACGCCCGGTCGCGGTACTCTGATCATAGTCAGACCAACATTGCTACGAC | -2.03 ± 0.4
26 | ACATTTGTTGATACAACCATAAAATGATAATGCCACCCATAAATTGATAATTATCACACCCATAAATTGATATTGCCTCTGATCATAGTCAGACCAACATTGCTACGACCCGTATTCGCACCGACAC | -0.625 ± 0.1
27 | ACATTTGTTGATACAACCATAAAATGATAATTAATAATTATTTATAATCAGCCACCCATAAATTGATAATTATCACACCCATAAATTGATATTGCCTCTGATCATAGTCAGACCAACATTGCTACGA | -3.35 ± 0.33
28 | ACATTTGTTGATACACCCATAAATTGATAATTACAACCATAAAGTGATATTTATCAGTGGGTATTTAACTATAACGCTCTGATCATAGTCAGACCAACATTGCTACGACCCGTATTCGCACCGACAC | -0.744 ± 0.28
29 | ACATTTGCTGATAGAACCATTTAATGATAATAACACCAATAAAATGATAATTATCACACCCAATTTAACTATAACGCTCTGATCATAGTCAGACCAACATTGCTACGACCCGTATTCGCACCGACAC | -4.53 ± 0.5
30 | ACATTTGTTGATACAACCATATATTGATATCTCCACCCATAAATTGATATTGCTCACAACCATATATTGATATCTCCTCTGATCATAGTCAGACCAACATTGCTACGACCCGTATTCGCACCGACAC | -0.713 ± 0.056
31 | ACATTTGTTGATACACCCATAAATTGATATTGCCACCCATAAATTGATAATTATCACAACCATAAAATGATAATTACTCTGATCATAGTCAGACCAACATTGCTACGACCCGTATTCGCACCGACAC | -0.382 ± 0.087
32 | ACATTTGTTGATACACCCATAAATTGATAATTACACCCATAAATTGATATTGCTCACAACCATAAAGTGATATTTACTCTGATCATAGTCAGACCAACATTGCTACGACCCGTATTCGCACCGACAC | -0.813 ± 0.18
